In the Human Domainome abundance scans (Beltran et al. 2025):
± gives the uncertainty stated by the source.

B1: Unconventional myosin-Ie, residues 1051 to 1108; numbered along this chain, Q12965 (parent)
chain: PQVPQCKALYAYDAQDTDELSFNANDIIDIIKEDPSGWWTGRLRGKQGLFPNNYVTKI

Variants of: B1
Experiment: abundance fitness (aPCA) (normalised: wild type 0, dead -1); higher = more abundant; growth selection in yeast, the domain comes from the species named
Conditions: Homo sapiens

Going from PQVPQCKALYAYDAQDTDELSFNANDIIDIIKEDPSGWWTGRLRGKQGLFPNNYVTKT to PQVPQCKALYAYDAQDTDELSFNANDIIDIIKEDPSGWWTGRLRGKQGLFPNNYVTKV, the abundance fitness rises from -0.484 ± 0.25 to -0.055 ± 0.039.

PQVPQCKALYAYDAQDTDELSFNANDIIDIIKEDPSGWWTGRLRGKQGLFPNNYVTKS and PQVPQCKALYAYDAQDTDELSFNANDIIDIIKEDPSGWWTGRLRGKQGLFPNNYVTKH are within error of each other in abundance fitness: -0.15 ± 0.049 for the first, -0.333 ± 0.2 for the second.

Going from PQVPQCKALYAYDAQDTDELSFNANDIIDIIKEDPSGWWTGRLRGKQGLFPNNYVTKG to PQVPQCKALYAYDAQDTDELSFNANDIIDIIKEDPSGWWTGRLRGKQGLFPNNYVTKL, the abundance fitness rises from -0.456 ± 0.24 to -0.091 ± 0.078.

PQVPQCKALYAYDAQDTDELSFNANDIIDIIKEDPSGWWTGRLRGKQGLFPNNYVTKY and PQVPQCKALYAYDAQDTDELSFNANDIIDIIKEDPSGWWTGRLRGKQGLFPNNYVTKM are within error of each other in abundance fitness: -0.299 ± 0.2 for the first, 0.015 ± 0.48 for the second.

For PQVPQCKALYAYDAQDTDELSFNANDIIDIIKEDPSGWWTGRLRGKQGLFPNNYVTKR, the abundance fitness was -0.32 ± 0.058.
